Literature values in patent US5866683A, “Isoelectric point markers for isoelectric focusing with fluorescence detection” (Laboratory of Molecular Biophotonics, priority 1995, dated 1999).
Where “and” joins values, the source holds several entries; their conditions need not be identical. Equal entries are not always repeated.

Details: unlabeled protein

| Molecule | pI (known) of conventional protein pI marker |
| --- | --- |
| amyloglucosidase (protein, UniProt P69328 25-640, looked up) Glucoamylase: ATLDSWLSNEATVARTAILNNIGADGAWVSGADSGIVVASPSTDNPDYFYTWTRDSGLVLKTLVDLFRNGDTSLLSTIENYISAQAIVQGISNPSGDLSSGAGLGEPKFNVDETAYTGSWGRPQRDGPALRATAMIGFGQWLLDNGYTSTATDIVWPLVRNDLSYVAQYWNQTGYDLWEEVNGSSFFTIAVQHRALVEGSAFATAVGSSCSWCDSQAPEILCYLQSFWTGSFILANFDSSRSGKDANTLLGSIHTFDPEAACDDSTFQPCSPRALANHKEVVDSFRSIYTLNDGLSDSEAVAVGRYPEDTYYNGNPWFLCTLAAAEQLYDALYQWDKQGSLEVTDVSLDFFKALYSDAATGTYSSSSSTYSSIVDAVKTFADGFVSIVETHAASNGSMSEQYDKSDGEQLSARDLTWSYAALLTANNRRNSVVPASWGETSASSVPGTCAATSAIGTYSSVTVTSWPSIVATGGTTTTATPTGSGSVTSTSKTTATASKTSTSTSSTSCTTPTAVAVTFDLTATTTYGENIYLVGSISQLGDWETSDGIALSADKYTSSDPLWYVTVTLPAGESFEYKFIRIESDDSVEWESDPNREYTVPQACGTSTATVTDTWR | 3.50 |
| trypsinogen (protein, UniProt P00760 18-246, looked up, pro-form, conventional protein pI marker) pro-form: VDDDDKIVGGYTCGANTVPYQVSLNSGYHFCGGSLINSQWVVSAAHCYKSGIQVRLGEDNINVVEGNEQFISASKSIVHPSYNSNTLNNDIMLIKLKSAASLNSRVASISLPTSCASAGTQCLISGWGNTKSSGTSYPDVLKCLKAPILSDSSCKSAYPGQITSNMFCAGYLEGGKDSCQGDSGGPVVCSGKLQGIVSWGSGCAQKNKPGVYTKVCNYVSWIKQTIASN | 9.30 |
| lentilectin (protein, UniProt P02870 31-210; P02870 218-269, looked up, conventional protein pI marker, three pI's) Lectin beta chain: TETTSFSITKFSPDQKNLIFQGDGYTTKGKLTLTKAVKSTVGRALYSTPIHIWDRDTGNVANFVTSFTFVIDAPSSYNVADEFTFFIAPVDTKPQTGGGYLGVFNSKEYDKTSQTVAVEFDTFYNAAWDPSNKERHIGIDVNSIKSVNTKSWNLQNGERANVVIAFNAATNVLTVTLTYP Lectin alpha chain: VTSYTLNEVVPLKDVVPEWVRIGFSATTGAEFAAHEVHSWSFHSELGGTSSS | 7.80 and 8.00 and 8.20 |
| equine myoglobin (protein, UniProt P68082 2-154, looked up, conventional protein pI marker) Myoglobin: GLSDGEWQQVLNVWGKVEADIAGHGQEVLIRLFTGHPETLEKFDKFKHLKTEAEMKASEDLKKHGTVVLTALGGILKKKGHHEAELKPLAQSHATKHKIPIKYLEFISDAIIHVLHSKHPGDFGADAQGAMTKALELFRNDIAAKYKELGFQG | 7.00 |
